Measured values taken from US5922563.

Molecular target: receptors on glutaraldehyde-fixed HeLa cells
Assay: competition ligand assay on fixed HeLa cells; 100 µg E. coli lysate (F11.2 cDNA); competitor: ^35 S-labeled trichomonad AP65; densitometry of fluorograms

recombinant AP65-1 adhesin expressed in E. coli from cDNA clone F11.2 (ligand)
percent decrease of parasite AP65 binding: 55%
